Variants at the floor of the assay were thinned out.
Assays:
[1] = system: biotinyl-Met-oxazolone; assay: self-aminoacylation, catalytic enhancement (BMO) (fold over background); higher = more active; k-Seq, kA / k0A0; sequences stand for … in GGGAAUGGAUCCACAUCUACGAAUUC…UUCACUGCAGACUUGACGAAGCUG
Method in brief: (§1)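 Mutagenized RNA pools (0.43 μM; 21-nt variable region) were treated with 2–1250 μM of each biotinyl-aminoacyl-oxazolone. Conditions were 50 μL HEPES/NaCl/KCl/MgCl2/CaCl2 buffer, 5% acetonitrile, pH 6.9–7.0, room temperature, 90 minutes. Catalytic enhancement, the median kA relative to the uncatalyzed rate, was derived from streptavidin capture, qPCR and Illumina sequencing.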

[2] = system: biotinyl-Phe-oxazolone; assay: self-aminoacylation, catalytic enhancement (BFO) (fold over background); higher = more active; k-Seq, kA / k0A0; sequences stand for … in GGGAAUGGAUCCACAUCUACGAAUUC…UUCACUGCAGACUUGACGAAGCUG
Method in brief: as §1

[3] = system: biotinyl-Ile-oxazolone; assay: self-aminoacylation, catalytic enhancement (BIO) (fold over background); higher = more active; k-Seq, kA / k0A0; sequences stand for … in GGGAAUGGAUCCACAUCUACGAAUUC…UUCACUGCAGACUUGACGAAGCUG
Method in brief: as §1

[4] = system: biotinyl-Leu-oxazolone; assay: self-aminoacylation, catalytic enhancement (BLO) (fold over background); higher = more active; k-Seq, kA / k0A0; sequences stand for … in GGGAAUGGAUCCACAUCUACGAAUUC…UUCACUGCAGACUUGACGAAGCUG
Method in brief: as §1

[5] = system: biotinyl-Trp-oxazolone; assay: self-aminoacylation, catalytic enhancement (BWO) (fold over background); higher = more active; k-Seq, kA / k0A0; sequences stand for … in GGGAAUGGAUCCACAUCUACGAAUUC…UUCACUGCAGACUUGACGAAGCUG
Method in brief: as §1

[6] = system: biotinyl-Val-oxazolone; assay: self-aminoacylation, catalytic enhancement (BVO) (fold over background); higher = more active; k-Seq, kA / k0A0; sequences stand for … in GGGAAUGGAUCCACAUCUACGAAUUC…UUCACUGCAGACUUGACGAAGCUG
Method in brief: as §1

Sequence: AUUACCCUGGACAACGAGUGA [Fam2.1 aminoacylation ribozyme variant]
- self-aminoacylation [1]: 8.65
- self-aminoacylation [2]: 59.1
- self-aminoacylation [3]: 3.88
- self-aminoacylation [4]: 8.43
- self-aminoacylation [5]: 9.2
- self-aminoacylation [6]: 3.76

Sequence: AUUACCCUUGUCGUCGAGUGA [Fam2.1 aminoacylation ribozyme variant]
- self-aminoacylation [1]: 1.06
- self-aminoacylation [2]: 2.62
- self-aminoacylation [3]: 1.13
- self-aminoacylation [4]: 1.05
- self-aminoacylation [5]: 0.966
- self-aminoacylation [6]: 1.11

Sequence: AUUCACCUAGGUUAUCGGGUG [Fam2.2 aminoacylation ribozyme variant]
- self-aminoacylation [1]: 4.34
- self-aminoacylation [2]: 28
- self-aminoacylation [3]: 2.89
- self-aminoacylation [4]: 5.2
- self-aminoacylation [5]: 4.33
- self-aminoacylation [6]: 3.15

Sequence: AUUACCCUGGGCAGCGAGUGA [Fam2.1 aminoacylation ribozyme variant]
- self-aminoacylation [1]: 9.21
- self-aminoacylation [2]: 34.6
- self-aminoacylation [3]: 5.87
- self-aminoacylation [4]: 8.78
- self-aminoacylation [5]: 9.57
- self-aminoacylation [6]: 5.64

Sequence: CCACACUUCAGGCAUUCGGUC [Fam1B.1 aminoacylation ribozyme variant]
- self-aminoacylation [1]: 1.88
- self-aminoacylation [2]: 1.09
- self-aminoacylation [3]: 2.2
- self-aminoacylation [4]: 2.2
- self-aminoacylation [5]: 2.27
- self-aminoacylation [6]: 2.48

Sequence: AAGGGUGCUAAUAGUCGCAAG [Fam3.1 aminoacylation ribozyme variant]
- self-aminoacylation [1]: 1.74
- self-aminoacylation [2]: 6.2
- self-aminoacylation [3]: 1.72
- self-aminoacylation [4]: 1.5
- self-aminoacylation [5]: 2.93
- self-aminoacylation [6]: 1.36

Sequence: CUACUUCAAUCAAUCGGGCUG [Fam1A.1 aminoacylation ribozyme variant]
- self-aminoacylation [1]: 1.31
- self-aminoacylation [2]: 8.36
- self-aminoacylation [3]: 1.41
- self-aminoacylation [4]: 1.38
- self-aminoacylation [5]: 7.13
- self-aminoacylation [6]: 1.24

Sequence: AUUCAACUAGGUCAUCGGGUG [Fam2.2 aminoacylation ribozyme variant]
- self-aminoacylation [1]: 5.65
- self-aminoacylation [2]: 40.6
- self-aminoacylation [3]: 3.6
- self-aminoacylation [4]: 7.19
- self-aminoacylation [5]: 5.46
- self-aminoacylation [6]: 3.47

Sequence: CCACACUUCAAACAAUCGGAC [Fam1B.1 aminoacylation ribozyme variant]
- self-aminoacylation [1]: 0.88
- self-aminoacylation [2]: 3.27
- self-aminoacylation [3]: 1.01
- self-aminoacylation [4]: 0.951
- self-aminoacylation [5]: 1.94
- self-aminoacylation [6]: 1

Sequence: ACUACCCUGGUCAUCGAUUGA [Fam2.1 aminoacylation ribozyme variant]
- self-aminoacylation [1]: 1.05
- self-aminoacylation [2]: 1.59
- self-aminoacylation [3]: 1.01
- self-aminoacylation [4]: 1.16
- self-aminoacylation [5]: 1.16
- self-aminoacylation [6]: 1.02

Sequence: AUUACCCGGCUCAUCGAGUGA [Fam2.1 aminoacylation ribozyme variant]
- self-aminoacylation [1]: 1.72
- self-aminoacylation [2]: 0.746
- self-aminoacylation [3]: 1.79
- self-aminoacylation [4]: 1.71
- self-aminoacylation [5]: 1.61
- self-aminoacylation [6]: 1.72

Sequence: AAUCACCUAGGUUAUCGGGUG [Fam2.2 aminoacylation ribozyme variant]
- self-aminoacylation [1]: 4.32
- self-aminoacylation [2]: 38.4
- self-aminoacylation [3]: 3.83
- self-aminoacylation [4]: 4.57
- self-aminoacylation [5]: 7.07
- self-aminoacylation [6]: 4.23

Sequence: ACUCACCUAGGUCAUCGGCUG [Fam2.2 aminoacylation ribozyme variant]
- self-aminoacylation [1]: 2
- self-aminoacylation [2]: 7.96
- self-aminoacylation [3]: 2.1
- self-aminoacylation [4]: 1.31
- self-aminoacylation [5]: 2.35
- self-aminoacylation [6]: 3.01

Sequence: AUUACCCCGGUUAUCGAGUGA [Fam2.1 aminoacylation ribozyme variant]
- self-aminoacylation [1]: 6.01
- self-aminoacylation [2]: 32.1
- self-aminoacylation [3]: 2.72
- self-aminoacylation [4]: 6.39
- self-aminoacylation [5]: 5.95
- self-aminoacylation [6]: 2.74

Sequence: CUACUUCAAACAAUCCGUUUG [Fam1A.1 aminoacylation ribozyme variant]
- self-aminoacylation [1]: 0.594
- self-aminoacylation [2]: 0.704
- self-aminoacylation [3]: 0.694
- self-aminoacylation [4]: 0.674
- self-aminoacylation [5]: 0.87
- self-aminoacylation [6]: 0.77

Sequence: AUUACCCCGGUCACCGAGUGA [Fam2.1 aminoacylation ribozyme variant]
- self-aminoacylation [1]: 12.7
- self-aminoacylation [2]: 95.8
- self-aminoacylation [3]: 5.59
- self-aminoacylation [4]: 13
- self-aminoacylation [5]: 12.3
- self-aminoacylation [6]: 4.77

Sequence: CUGCUUCAAAGAAUCGGUCUG [Fam1A.1 aminoacylation ribozyme variant]
- self-aminoacylation [1]: 1.19
- self-aminoacylation [2]: 14.5
- self-aminoacylation [3]: 1.04
- self-aminoacylation [4]: 1.39
- self-aminoacylation [5]: 11.7
- self-aminoacylation [6]: 0.891

Sequence: AUUCACCUCGCUCAUCGGGUG [Fam2.2 aminoacylation ribozyme variant]
- self-aminoacylation [1]: 3.42
- self-aminoacylation [2]: 13.5
- self-aminoacylation [3]: 2.57
- self-aminoacylation [4]: 3.61
- self-aminoacylation [5]: 3.01
- self-aminoacylation [6]: 2.74

Sequence: AUUAACCUGGUCAUCGAGUCA [Fam2.1 aminoacylation ribozyme variant]
- self-aminoacylation [1]: 0.763
- self-aminoacylation [2]: 0.5
- self-aminoacylation [3]: 0.698
- self-aminoacylation [4]: 0.662
- self-aminoacylation [5]: 0.405
- self-aminoacylation [6]: 0.711

Sequence: AUUCACCUAGGUCAACCGGUG [Fam2.2 aminoacylation ribozyme variant]
- self-aminoacylation [1]: 4.9
- self-aminoacylation [2]: 26.6
- self-aminoacylation [3]: 2.99
- self-aminoacylation [4]: 6.28
- self-aminoacylation [5]: 4.14
- self-aminoacylation [6]: 2.72

Sequence: CCACACUUCUAGCAAUCGCUC [Fam1B.1 aminoacylation ribozyme variant]
- self-aminoacylation [1]: 0.72
- self-aminoacylation [2]: 1.02
- self-aminoacylation [3]: 1.11
- self-aminoacylation [4]: 0.829
- self-aminoacylation [5]: 0.453
- self-aminoacylation [6]: 1.04

Sequence: AUCACCCUGGUAAUCGAGUGA [Fam2.1 aminoacylation ribozyme variant]
- self-aminoacylation [1]: 11.2
- self-aminoacylation [2]: 95.4
- self-aminoacylation [3]: 4.92
- self-aminoacylation [4]: 11.3
- self-aminoacylation [5]: 13.6
- self-aminoacylation [6]: 4.82

Sequence: CCACACUUCAUGCCAUCGGUC [Fam1B.1 aminoacylation ribozyme variant]
- self-aminoacylation [1]: 0.691
- self-aminoacylation [2]: 0.488
- self-aminoacylation [3]: 0.957
- self-aminoacylation [4]: 0.921
- self-aminoacylation [5]: 1.59
- self-aminoacylation [6]: 1.1

Sequence: AGGUUUGCUAAUAGUUGCAAG [Fam3.1 aminoacylation ribozyme variant]
- self-aminoacylation [1]: 0.863
- self-aminoacylation [2]: 1.44
- self-aminoacylation [3]: 1.17
- self-aminoacylation [4]: 0.994
- self-aminoacylation [5]: 0.893
- self-aminoacylation [6]: 0.924

Sequence: AAGUUUGCUAGUAGUGGCAAG [Fam3.1 aminoacylation ribozyme variant]
- self-aminoacylation [1]: 0.882
- self-aminoacylation [2]: 1.2
- self-aminoacylation [3]: 0.893
- self-aminoacylation [4]: 0.71
- self-aminoacylation [5]: 0.556
- self-aminoacylation [6]: 0.814

Sequence: AUUACCCUGUUCAUCGAGCGA [Fam2.1 aminoacylation ribozyme variant]
- self-aminoacylation [1]: 1.35
- self-aminoacylation [2]: 1.13
- self-aminoacylation [3]: 1.2
- self-aminoacylation [4]: 1.36
- self-aminoacylation [5]: 1.08
- self-aminoacylation [6]: 1.33

Sequence: AUCACCCUGGACAUCGAGUGA [Fam2.1 aminoacylation ribozyme variant]
- self-aminoacylation [1]: 9.05
- self-aminoacylation [2]: 68.7
- self-aminoacylation [3]: 3.98
- self-aminoacylation [4]: 10.4
- self-aminoacylation [5]: 8.8
- self-aminoacylation [6]: 4.56

Sequence: CCACACUUCAAGGAAUCAGUC [Fam1B.1 aminoacylation ribozyme variant]
- self-aminoacylation [1]: 0.614
- self-aminoacylation [2]: 2.49
- self-aminoacylation [3]: 0.668
- self-aminoacylation [4]: 0.62
- self-aminoacylation [5]: 1.08
- self-aminoacylation [6]: 0.757

Sequence: CUACUUCACACAAUCGGACUG [Fam1A.1 aminoacylation ribozyme variant]
- self-aminoacylation [1]: 0.609
- self-aminoacylation [2]: 0.755
- self-aminoacylation [3]: 0.882
- self-aminoacylation [4]: 0.673
- self-aminoacylation [5]: 0.442
- self-aminoacylation [6]: 0.736

Source: the supplement of paper PMC9233669
